According to US20220064329A1 (Novo Nordisk, published 2022):

B1: VH SEQ ID NO 634 / VL SEQ ID NO 454 (antibody, IgG4, V domains shown)
VH: QVQLQESGPGLVKPSQTLSLTCTVSGYSISSDSAWSWIRQPPGKGLEWIGYIQYSGSTNYNPSLKSRVTISRDTSKNQFSLKLSSVTAADTAVYYCARSVNYYGNSFAVGYWGQGTLVTVSS
VL: EIVLTQSPATLSLSPGERATLSCRASQGVSDYLHWYQQKPGEAPRLLIKYASQPATGIPARFSGSGSGTDFTLTISSLEPEDFAVYYCQNGHSFPLTFGQGTKLEIK
notes: humanized 11F2; IgG4 S228P/kappa
B2: VH SEQ ID NO 642 / VL SEQ ID NO 382 (antibody, IgG4, V domains shown)
VH: QVQLQESGPGLVKPSQTLSLTCTVSGYSISSDSAWSWIRQPPGKGLEWIGYIYYSGSTNYNPSLKSRVTISVDTSKNQFSLKLSSVTAADTAVYYCARSVNYYGNSFAVGYWGQGTSVTVSS
VL: EIVLTQSPATLSLSPGERATLSCRASQGLSDYLHWYQQKPGEAPRLLIKYASQPATGIPARFSGSGSGTDFTLTISSLEPEDFAVYYCQNGHSFPLTFGQGTKLEIK
notes: as for B1
B3: VH SEQ ID NO 642 / VL SEQ ID NO 462 (antibody, IgG4, V domains shown)
VH: QVQLQESGPGLVKPSQTLSLTCTVSGYSISSDSAWSWIRQPPGKGLEWIGYIYYSGSTNYNPSLKSRVTISVDTSKNQFSLKLSSVTAADTAVYYCARSVNYYGNSFAVGYWGQGTSVTVSS
VL: EIVLTQSPATLSLSPGERATLSCRASQGVSDYLHWYQQKPGQAPRLLIKYASQPATGIPARFSGSGSGTDFTLTISSLEPEDFAVYYCQNGHSFPLTFGAGTKLEIK
notes: as for B1
B4: VH SEQ ID NO 642 / VL SEQ ID NO 430 (antibody, IgG4, V domains shown)
VH: QVQLQESGPGLVKPSQTLSLTCTVSGYSISSDSAWSWIRQPPGKGLEWIGYIYYSGSTNYNPSLKSRVTISVDTSKNQFSLKLSSVTAADTAVYYCARSVNYYGNSFAVGYWGQGTSVTVSS
VL: EIVLTQSPATLSLSPGERATLSCRASQGVSDYLAWYQQKPGQAPRLLIKYASQPATGIPARFSGSGSGTDFTLTISSLEPEDFGVYYCQNGHSFPLTFGQGTKLEIK
notes: as for B1
B5: VH SEQ ID NO 634 / VL SEQ ID NO 486 (antibody, IgG4, V domains shown)
VH: QVQLQESGPGLVKPSQTLSLTCTVSGYSISSDSAWSWIRQPPGKGLEWIGYIQYSGSTNYNPSLKSRVTISRDTSKNQFSLKLSSVTAADTAVYYCARSVNYYGNSFAVGYWGQGTLVTVSS
VL: EIVLTQSPATLSLSPGERATLSCRASQGVSDYLHWYQQKPGQAPRLLIKYASQPATGIPARFSGSGSGTDFTLTISSLEPEDFGVYYCQNGHSFPLTFGQGTKLEIK
notes: as for B1
B6: VH SEQ ID NO 642 / VL SEQ ID NO 310 (antibody, IgG4, V domains shown)
VH: QVQLQESGPGLVKPSQTLSLTCTVSGYSISSDSAWSWIRQPPGKGLEWIGYIYYSGSTNYNPSLKSRVTISVDTSKNQFSLKLSSVTAADTAVYYCARSVNYYGNSFAVGYWGQGTSVTVSS
VL: EIVLTQSPATLSLSPGERATLSCRASQGISDYLAWYQQKPGQAPRLLIKYASQPATGIPARFSGSGSGTDFTLTISSLEPEDFAVYYCQNGHSFPLTFGQGTKLEIK
notes: as for B1
B7: VH SEQ ID NO 642 / VL SEQ ID NO 334 (antibody, IgG4, V domains shown)
VH: QVQLQESGPGLVKPSQTLSLTCTVSGYSISSDSAWSWIRQPPGKGLEWIGYIYYSGSTNYNPSLKSRVTISVDTSKNQFSLKLSSVTAADTAVYYCARSVNYYGNSFAVGYWGQGTSVTVSS
VL: EIVLTQSPATLSLSPGERATLSCRASQGISDYLHWYQQKPGQAPRLLIKYASQPATGIPARFSGSGSGTDFTLTISSLEPEDFAVYYCQNGHSFPLTFGQGTKLEIK
notes: as for B1
B8: VH SEQ ID NO 634 / VL SEQ ID NO 478 (antibody, IgG4, V domains shown)
VH: QVQLQESGPGLVKPSQTLSLTCTVSGYSISSDSAWSWIRQPPGKGLEWIGYIQYSGSTNYNPSLKSRVTISRDTSKNQFSLKLSSVTAADTAVYYCARSVNYYGNSFAVGYWGQGTLVTVSS
VL: EIVLTQSPATLSLSPGERATLSCRASQGVSDYLHWYQQKPGQAPRLLIKYASQPATGIPARFSGSGSGTDFTLTISSLEPEDFAVYYCQQGHSFPLTFGQGTKLEIK
notes: as for B1
B9: VH SEQ ID NO 642 / VL SEQ ID NO 326 (antibody, IgG4, V domains shown)
VH: QVQLQESGPGLVKPSQTLSLTCTVSGYSISSDSAWSWIRQPPGKGLEWIGYIYYSGSTNYNPSLKSRVTISVDTSKNQFSLKLSSVTAADTAVYYCARSVNYYGNSFAVGYWGQGTSVTVSS
VL: EIVLTQSPATLSLSPGERATLSCRASQGISDYLHWYQQKPGEAPRLLIKYTSQPATGIPARFSGSGSGTDFTLTISSLEPEDFGVYYCQNGHSFPLTFGAGTKLELK
notes: as for B1
B10: VH SEQ ID NO 634 / VL SEQ ID NO 502 (antibody, IgG4, V domains shown)
VH: QVQLQESGPGLVKPSQTLSLTCTVSGYSISSDSAWSWIRQPPGKGLEWIGYIQYSGSTNYNPSLKSRVTISRDTSKNQFSLKLSSVTAADTAVYYCARSVNYYGNSFAVGYWGQGTLVTVSS
VL: EIVLTQSPATLSLSPGERATLSCRASQGVSDYLHWYQQKPGQAPRLLIKYTSQPATGIPARFSGSGSGTDFTLTISSLEPEDFAVYYCQNGHSFPLTFGQGTKLEIK
notes: as for B1
B11: VH SEQ ID NO 634 / VL SEQ ID NO 470 (antibody, IgG4, V domains shown)
VH: QVQLQESGPGLVKPSQTLSLTCTVSGYSISSDSAWSWIRQPPGKGLEWIGYIQYSGSTNYNPSLKSRVTISRDTSKNQFSLKLSSVTAADTAVYYCARSVNYYGNSFAVGYWGQGTLVTVSS
VL: EIVLTQSPATLSLSPGERATLSCRASQGVSDYLHWYQQKPGQAPRLLIKYASQPATGIPARFSGSGSGTDFTLTISSLEPEDFAVYYCQNGHSFPLTFGQGTKLEIK
notes: as for B1
B12: VH SEQ ID NO 642 / VL SEQ ID NO 438 (antibody, IgG4, V domains shown)
VH: QVQLQESGPGLVKPSQTLSLTCTVSGYSISSDSAWSWIRQPPGKGLEWIGYIYYSGSTNYNPSLKSRVTISVDTSKNQFSLKLSSVTAADTAVYYCARSVNYYGNSFAVGYWGQGTSVTVSS
VL: EIVLTQSPATLSLSPGERATLSCRASQGVSDYLAWYQQKPGQAPRLLIKYASQPATGIPARFSGSGSGTDFTLTISSLEPEDVAVYYCQNGHSFPLTFGQGTKLEIK
notes: as for B1
B13: VH SEQ ID NO 642 / VL SEQ ID NO 358 (antibody, IgG4, V domains shown)
VH: QVQLQESGPGLVKPSQTLSLTCTVSGYSISSDSAWSWIRQPPGKGLEWIGYIYYSGSTNYNPSLKSRVTISVDTSKNQFSLKLSSVTAADTAVYYCARSVNYYGNSFAVGYWGQGTSVTVSS
VL: EIVLTQSPATLSLSPGERATLSCRASQGISDYLHWYQQKPGQAPRLLIKYTSQPATGIPARFSGSGSGTDFTLTISSLEPEDFAVYYCQNGHSFPLTFGQGTKLEIK
notes: as for B1
B14: VH SEQ ID NO 642 / VL SEQ ID NO 318 (antibody, IgG4, V domains shown)
VH: QVQLQESGPGLVKPSQTLSLTCTVSGYSISSDSAWSWIRQPPGKGLEWIGYIYYSGSTNYNPSLKSRVTISVDTSKNQFSLKLSSVTAADTAVYYCARSVNYYGNSFAVGYWGQGTSVTVSS
VL: EIVLTQSPATLSLSPGERATLSCRASQGISDYLHWYQQKPGEAPRLLIKYTSQPATGIPARFSGSGSGTDFTLTISSLEPEDFAVYYCQNGHSFPLTFGQGTKLEIK
notes: as for B1
B15: VH SEQ ID NO 642 / VL SEQ ID NO 342 (antibody, IgG4, V domains shown)
VH: QVQLQESGPGLVKPSQTLSLTCTVSGYSISSDSAWSWIRQPPGKGLEWIGYIYYSGSTNYNPSLKSRVTISVDTSKNQFSLKLSSVTAADTAVYYCARSVNYYGNSFAVGYWGQGTSVTVSS
VL: EIVLTQSPATLSLSPGERATLSCRASQGISDYLHWYQQKPGQAPRLLIKYTSQPATGIPARFSGSGSGRDFTLTISSLEPEDFAVYYCQNGHSFPLTFGAGTKLELK
notes: as for B1
B16: VH SEQ ID NO 634 / VL SEQ ID NO 462 (antibody, IgG4, V domains shown)
VH: QVQLQESGPGLVKPSQTLSLTCTVSGYSISSDSAWSWIRQPPGKGLEWIGYIQYSGSTNYNPSLKSRVTISRDTSKNQFSLKLSSVTAADTAVYYCARSVNYYGNSFAVGYWGQGTLVTVSS
VL: EIVLTQSPATLSLSPGERATLSCRASQGVSDYLHWYQQKPGQAPRLLIKYASQPATGIPARFSGSGSGTDFTLTISSLEPEDFAVYYCQNGHSFPLTFGAGTKLEIK
notes: as for B1
B17: VH SEQ ID NO 642 / VL SEQ ID NO 350 (antibody, IgG4, V domains shown)
VH: QVQLQESGPGLVKPSQTLSLTCTVSGYSISSDSAWSWIRQPPGKGLEWIGYIYYSGSTNYNPSLKSRVTISVDTSKNQFSLKLSSVTAADTAVYYCARSVNYYGNSFAVGYWGQGTSVTVSS
VL: EIVLTQSPATLSLSPGERATLSCRASQGISDYLHWYQQKPGQAPRLLIKYTSQPATGIPARFSGSGSGTDFTLTISSLEPEDFAVYYCQNGHSFPLTFGAGTKLELK
notes: as for B1
B18: VH SEQ ID NO 634 / VL SEQ ID NO 494 (antibody, IgG4, V domains shown)
VH: QVQLQESGPGLVKPSQTLSLTCTVSGYSISSDSAWSWIRQPPGKGLEWIGYIQYSGSTNYNPSLKSRVTISRDTSKNQFSLKLSSVTAADTAVYYCARSVNYYGNSFAVGYWGQGTLVTVSS
VL: EIVLTQSPATLSLSPGERATLSCRASQGVSDYLHWYQQKPGQAPRLLIKYASQPATGIPARFSGSGSGTDFTLTISSLEPEDVAVYYCQNGHSFPLTFGQGTKLEIK
notes: as for B1
B19: VH SEQ ID NO 642 / VL SEQ ID NO 454 (antibody, IgG4, V domains shown)
VH: QVQLQESGPGLVKPSQTLSLTCTVSGYSISSDSAWSWIRQPPGKGLEWIGYIYYSGSTNYNPSLKSRVTISVDTSKNQFSLKLSSVTAADTAVYYCARSVNYYGNSFAVGYWGQGTSVTVSS
VL: EIVLTQSPATLSLSPGERATLSCRASQGVSDYLHWYQQKPGEAPRLLIKYASQPATGIPARFSGSGSGTDFTLTISSLEPEDFAVYYCQNGHSFPLTFGQGTKLEIK
notes: as for B1
B20: VH SEQ ID NO 642 / VL SEQ ID NO 470 (antibody, IgG4, V domains shown)
VH: QVQLQESGPGLVKPSQTLSLTCTVSGYSISSDSAWSWIRQPPGKGLEWIGYIYYSGSTNYNPSLKSRVTISVDTSKNQFSLKLSSVTAADTAVYYCARSVNYYGNSFAVGYWGQGTSVTVSS
VL: EIVLTQSPATLSLSPGERATLSCRASQGVSDYLHWYQQKPGQAPRLLIKYASQPATGIPARFSGSGSGTDFTLTISSLEPEDFAVYYCQNGHSFPLTFGQGTKLEIK
notes: as for B1

Molecular target: T1, recombinant human activated Factor VII (FVIIa) (human, UniProt P08709 61-212; P08709 213-466, ten glutamate residues of the Gla domain may be gamma-carboxylated)
T1 construct: chains tethered by a disulfide bond; also called Factor VIIa; rFVIIa
T1 sequence 1: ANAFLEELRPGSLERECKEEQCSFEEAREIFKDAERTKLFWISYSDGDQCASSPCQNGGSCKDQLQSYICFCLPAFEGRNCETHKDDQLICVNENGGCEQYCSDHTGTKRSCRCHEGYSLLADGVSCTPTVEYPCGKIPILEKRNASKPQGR
T1 sequence 2: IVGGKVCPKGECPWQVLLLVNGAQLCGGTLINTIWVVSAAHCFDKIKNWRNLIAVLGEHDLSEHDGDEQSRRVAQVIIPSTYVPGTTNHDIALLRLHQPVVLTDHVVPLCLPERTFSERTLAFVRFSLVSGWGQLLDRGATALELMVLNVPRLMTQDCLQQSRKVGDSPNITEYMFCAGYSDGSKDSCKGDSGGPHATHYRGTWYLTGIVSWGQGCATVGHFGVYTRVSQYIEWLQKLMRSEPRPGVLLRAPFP
Assay: BLI (Fortebio)

Binder | Kd
B1 | 1.2 nM
B2 | 600 nM
B3 | 52 nM
B4 | 540 nM
B5 | 1.4 nM
B6 | 1600 nM
B7 | 1000 nM
B8 | 1.8 nM
B9 | 23 nM
B10 | 1.3 nM
B11 | 1 nM
B12 | 33 nM
B13 | 320 nM
B14 | 81 nM
B15 | 40 nM
B16 | 1.2 nM
B17 | 120 nM
B18 | 1.3 nM
B19 | 25 nM
B20 | 47 nM
